Biological target: tau-CFP/YFP protein biosensors (UniProt P10636)
Assay: cell-based or functional assay

Sequence of tau-CFP/YFP protein biosensors (P10636 561-689, form in doubt): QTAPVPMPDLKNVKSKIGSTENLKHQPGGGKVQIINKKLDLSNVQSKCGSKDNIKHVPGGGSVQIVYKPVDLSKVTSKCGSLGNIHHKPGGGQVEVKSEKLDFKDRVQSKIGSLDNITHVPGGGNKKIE
Sequence of recombinant full-length (2N,4R) tau fibrils, preparation B (8 µM heparin, 22° C.) (P10636 other isoform, or with tags, fused parts or gaps limits assumed): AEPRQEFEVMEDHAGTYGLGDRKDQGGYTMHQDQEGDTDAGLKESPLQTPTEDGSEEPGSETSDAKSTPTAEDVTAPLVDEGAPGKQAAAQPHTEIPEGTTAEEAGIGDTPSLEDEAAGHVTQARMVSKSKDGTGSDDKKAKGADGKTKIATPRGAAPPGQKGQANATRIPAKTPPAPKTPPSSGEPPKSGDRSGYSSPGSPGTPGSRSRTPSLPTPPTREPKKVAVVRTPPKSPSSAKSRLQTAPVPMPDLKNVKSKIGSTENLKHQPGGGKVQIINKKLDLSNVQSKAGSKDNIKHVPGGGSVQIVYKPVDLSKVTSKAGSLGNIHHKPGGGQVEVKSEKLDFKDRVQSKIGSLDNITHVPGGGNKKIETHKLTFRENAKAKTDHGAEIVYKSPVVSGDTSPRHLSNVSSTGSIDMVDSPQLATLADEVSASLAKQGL
Sequence of recombinant full-length (2N,4R) tau fibrils, preparation A (8 µM heparin, 37° C.) (P10636 other isoform, or with tags, fused parts or gaps limits assumed): as above
Sequence of recombinant full-length (2N,4R) tau fibrils, preparation C (50 µM octadecyl sulfate, 37° C.) (P10636 other isoform, or with tags, fused parts or gaps limits assumed): as above

Row | Substance | EC50 (pM) of seeding, FRET flow cytometry in biosensor cell line [pM] | Plateau (fold increase) of seeding, FRET flow cytometry in biosensor cell line (fold increase)
1 | recombinant full-length (2N,4R) tau fibrils, preparation B (8 µM heparin, 22° C.) (from UniProt P10636 2-441) | 4.3 | 6.55
2 | recombinant full-length (2N,4R) tau fibrils, preparation A (8 µM heparin, 37° C.) (from UniProt P10636 2-441) | < 1 | 6.67
3 | recombinant full-length (2N,4R) tau fibrils, preparation C (50 µM octadecyl sulfate, 37° C.) (from UniProt P10636 2-441) | 141 | 4.19

From patent publication US20150126390A1
